These results are taken from publication PMC9357085, “Three pairs of surrogate redox partners comparison for Class I cytochrome P450 enzyme activity reconstitution” (Communications Biology, 2022).

Positions count from the first letter of the chain named.

Experiment [1] concerns the target T1, SelFdR0978 (Synechococcus elongatus, UniProt Q31PL1).
T1 construct: gene Synpcc7942_0978
Kind of experiment: FAD released by guanidinium chloride, absorbance at […] nm. The following applies: FAD-bound flavoprotein as purified. The class given is binding.

The target in experiment [2] is T2, putidaredoxin reductase from Pseudomonas putida (Pseudomonas putida) (UniProt P16640).
T2 sequence: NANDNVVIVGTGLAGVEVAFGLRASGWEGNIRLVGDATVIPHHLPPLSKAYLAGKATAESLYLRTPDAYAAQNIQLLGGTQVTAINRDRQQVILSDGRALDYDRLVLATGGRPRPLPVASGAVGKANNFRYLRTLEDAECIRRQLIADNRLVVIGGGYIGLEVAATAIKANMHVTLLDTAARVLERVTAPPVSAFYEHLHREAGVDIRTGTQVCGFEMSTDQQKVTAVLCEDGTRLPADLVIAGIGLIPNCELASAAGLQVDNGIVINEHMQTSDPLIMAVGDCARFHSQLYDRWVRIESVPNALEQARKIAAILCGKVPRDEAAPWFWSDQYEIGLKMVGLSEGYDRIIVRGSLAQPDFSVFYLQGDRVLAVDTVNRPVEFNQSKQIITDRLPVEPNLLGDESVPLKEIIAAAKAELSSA

For experiment [3], the target named is plastidic-type ferredoxin reductase SelFdR0978 from Synechococcus elongatus PCC 7942 (Synechococcus elongatus PCC 7942).
For experiment [4], the target named is T3, Bovine adrenodoxin reductase (bovine) (UniProt P08165).
T3 sequence: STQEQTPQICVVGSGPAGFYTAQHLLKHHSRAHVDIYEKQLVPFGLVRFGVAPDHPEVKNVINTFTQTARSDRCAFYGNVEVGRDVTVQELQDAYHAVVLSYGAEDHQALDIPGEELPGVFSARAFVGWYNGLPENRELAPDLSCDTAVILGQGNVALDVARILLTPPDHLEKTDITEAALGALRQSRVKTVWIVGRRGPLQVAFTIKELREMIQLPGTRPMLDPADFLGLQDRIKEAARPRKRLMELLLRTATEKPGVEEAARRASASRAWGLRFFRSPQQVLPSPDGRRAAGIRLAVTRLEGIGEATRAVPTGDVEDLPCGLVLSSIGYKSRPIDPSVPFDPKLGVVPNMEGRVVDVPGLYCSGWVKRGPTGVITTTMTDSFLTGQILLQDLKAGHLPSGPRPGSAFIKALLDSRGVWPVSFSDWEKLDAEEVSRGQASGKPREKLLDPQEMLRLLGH

Experiment [5] concerns the target plastidic-type ferredoxin reductase SelFdR0978 from Synechococcus elongatus PCC 7942 (Synechococcus elongatus PCC 7942). This is another data set of the same source.
Experiment [6] has as its target T4, PdR (putidaredoxin reductase) (Pseudomonas putida, UniProt P16640).
T4 construct: gene camA; His-tagged, expressed in E. coli, Ni-NTA purified
T4 sequence (P16640 1-422): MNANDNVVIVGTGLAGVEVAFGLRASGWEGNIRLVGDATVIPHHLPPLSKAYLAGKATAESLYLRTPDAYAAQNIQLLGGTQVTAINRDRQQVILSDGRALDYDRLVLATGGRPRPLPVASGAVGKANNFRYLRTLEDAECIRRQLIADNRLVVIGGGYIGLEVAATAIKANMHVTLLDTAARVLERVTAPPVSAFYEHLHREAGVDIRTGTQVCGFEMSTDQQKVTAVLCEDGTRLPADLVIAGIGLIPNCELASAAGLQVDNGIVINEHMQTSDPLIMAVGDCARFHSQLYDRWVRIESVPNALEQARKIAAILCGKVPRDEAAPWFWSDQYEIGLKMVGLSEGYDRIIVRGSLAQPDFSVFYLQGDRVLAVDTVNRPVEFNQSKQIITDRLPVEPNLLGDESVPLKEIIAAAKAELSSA
Put plainly: DCIP reduction, absorbance at […] nm. The following applies: 30 °C. Format: biochemical.

For experiment [7], the target named is T5, AdR (adrenodoxin reductase) (Bos taurus, UniProt P08165).
T5 construct: gene FDXR; C-terminal His-tag, expressed in E. coli; template plasmid pBAR-bAdR
T5 sequence (P08165 33-492): T3 sequence
Kind of experiment: DCIP reduction, absorbance at […] nm. The following applies: 30 °C. The class given is biochemical.

Experiment [8] addresses T1, SelFdR0978. Kind of experiment: DCIP reduction, absorbance at […] nm. The settings on record: 30 °C. The class given is biochemical.
Another experiment addresses T6, P450sca-2 (CYP105A3) (Streptomyces carbophilus, UniProt Q59831).
T6 construct: His-tagged, expressed in E. coli, Ni-NTA purified
T6 sequence (Q59831 2-410): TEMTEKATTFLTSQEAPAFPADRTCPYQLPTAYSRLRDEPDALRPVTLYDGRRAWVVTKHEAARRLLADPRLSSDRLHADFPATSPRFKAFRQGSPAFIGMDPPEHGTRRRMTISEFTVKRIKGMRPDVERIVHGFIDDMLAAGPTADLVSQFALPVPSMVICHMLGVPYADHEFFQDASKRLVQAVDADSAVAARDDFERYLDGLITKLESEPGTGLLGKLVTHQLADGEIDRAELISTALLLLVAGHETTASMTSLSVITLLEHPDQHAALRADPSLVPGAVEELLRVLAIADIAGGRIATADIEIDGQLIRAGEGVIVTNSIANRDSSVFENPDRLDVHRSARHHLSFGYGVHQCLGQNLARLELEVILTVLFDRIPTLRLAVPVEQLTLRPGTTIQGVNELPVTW
Kind of experiment: HPLC/HRMS of products, reconstituted system. Format: biochemical. The following applies: SelFdx1499/SelFdR0978 as redox partners (1:10:5), NADP+ with regeneration, pH 7.4, 30 °C, 2 h.

In experiment [9] the target is T3, Bovine adrenodoxin reductase (bovine). The source holds these as a separate data set.
Another experiment concerns the target T7, EpoK (CYP167A1) (Sorangium cellulosum, UniProt Q9KIZ4).
T7 construct: His-tagged, expressed in E. coli (general P450 statement)
Put plainly: conversion assay, reconstituted system. Format: biochemical. The settings on record: SelFdx1499/SelFdR0978 as redox partners.

In experiment [10] the target is T2, putidaredoxin reductase from Pseudomonas putida (Pseudomonas putida). The source holds these as a separate data set.
Setting [11] is: electron acceptor, 1 mM NADPH or NADH.
The mark [12] stands for this setting: electron donor at 1 mM, DCIP as acceptor.

T1 sequence (Q31PL1 1-403): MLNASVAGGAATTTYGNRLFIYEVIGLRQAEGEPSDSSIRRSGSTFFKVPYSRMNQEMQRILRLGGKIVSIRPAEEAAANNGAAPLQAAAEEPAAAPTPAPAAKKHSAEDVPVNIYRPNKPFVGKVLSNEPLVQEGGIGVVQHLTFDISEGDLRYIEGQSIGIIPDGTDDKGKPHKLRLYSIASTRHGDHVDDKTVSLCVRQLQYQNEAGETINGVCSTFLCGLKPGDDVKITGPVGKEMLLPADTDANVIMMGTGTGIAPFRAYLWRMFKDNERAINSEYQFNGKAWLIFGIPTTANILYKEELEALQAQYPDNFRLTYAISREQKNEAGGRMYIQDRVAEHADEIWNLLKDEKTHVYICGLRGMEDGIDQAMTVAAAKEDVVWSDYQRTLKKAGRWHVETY
T7 sequence (Q9KIZ4 whole entry): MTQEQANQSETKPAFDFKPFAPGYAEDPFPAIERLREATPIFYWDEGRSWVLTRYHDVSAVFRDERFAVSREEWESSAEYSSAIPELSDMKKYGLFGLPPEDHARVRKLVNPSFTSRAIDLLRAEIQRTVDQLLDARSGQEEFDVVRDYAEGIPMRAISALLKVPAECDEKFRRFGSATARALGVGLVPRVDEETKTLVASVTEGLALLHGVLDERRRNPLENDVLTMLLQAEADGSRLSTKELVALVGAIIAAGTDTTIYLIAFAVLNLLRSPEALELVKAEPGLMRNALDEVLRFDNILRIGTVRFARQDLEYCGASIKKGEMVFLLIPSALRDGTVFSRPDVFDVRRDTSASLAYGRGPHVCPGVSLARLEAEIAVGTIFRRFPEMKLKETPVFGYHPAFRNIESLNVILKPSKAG

As to `Cc1cc2nc3c(=O)[nH]c(=O)nc-3n(C[C@H](O)[C@H](O)[C@H](O)COP(=O)(O)OP(=O)(O)OC[C@H]3O[C@@H](n4cnc5c(N)ncnc54)[C@H](O)[C@@H]3O)c2cc1C` [FAD], on SelFdR0978 [1], the “FAD released by guanidinium chloride, absorbance at 450 nm” value is given as “extinction coefficients of the flavin-bound SelFdR0978”.

Turning to “Fe2S2 ferredoxin SelFdx1499 from Synechococcus elongatus PCC 7942 (natural protein)”, the conversion rate of YC-17 by PikC (1 uM P450, 10 uM Fdx, 5 uM FdR), wild-type reference in experiment [2] is 24.7%; in [3] it was 99.1%; in experiment [4] it was 30.1%. The Km for the redoxin in cyt c reduction (NAD(P)H, 1 nM FdR, 0-40 uM Fdx, 30 uM cyt c) in [5] stood at 14.2 µM.

Turning to `O=C1C(Cl)=CC(=Nc2ccc(O)cc2)C=C1Cl` [DCIP], the “DCIP reduction, absorbance at 600 nm” value in [6] (setting [11]) was “SelFdR0978 was more efficient in DCIP reduction than both AdR and PdR”; in experiment [7] (setting [11]), “SelFdR0978 was more efficient in DCIP reduction than both AdR and PdR”; on SelFdR0978 [8] (setting [11]), “SelFdR0978 was more efficient in DCIP reduction than both AdR and PdR”.

For the molecule `NC(=O)C1=CN([C@@H]2O[C@H](COP(=O)(O)OP(=O)(O)OC[C@H]3O[C@@H](n4cnc5c(N)ncnc54)[C@H](OP(=O)(O)O)[C@@H]3O)[C@@H](O)[C@H]2O)C=CC1` [NADPH], the “DCIP reduction, absorbance at 600 nm” value in [7] (setting [12]) is given as “AdR only exhibited a slightly increased activity with NADPH than with NADH”; at SelFdR0978 [8] (setting [12]), “SelFdR0978 showed a strong preference for NADPH over NADH”.

Regarding `CC[C@H](C)C(=O)O[C@H]1CCC=C2C=C[C@H](C)[C@H](CC[C@@H](O)C[C@@H](O)CC(=O)O)[C@H]21`, the “HPLC/HRMS of products, reconstituted system” value on P450sca-2 (CYP105A3) is “P450sca-2 produced pravastatin as the main product in all positive reactions”.

For the molecule “Bovine adrenodoxin Adx(4-108) (domain or fragment)”, the conversion rate of YC-17 by PikC (1 uM P450, 10 uM Fdx, 5 uM FdR), wild-type reference in experiment [2] came out at 16.5%; in [3], 15.6%; in [4], 63.8%. In addition, the Km for the redoxin in cyt c reduction (NAD(P)H, 1 nM FdR, 0-40 uM Fdx, 30 uM cyt c) in [9] turned out to be 14.6 µM.

On to `NC(=O)C1=CN([C@@H]2O[C@H](COP(=O)(O)OP(=O)(O)OC[C@H]3O[C@@H](n4cnc5c(N)ncnc54)[C@H](O)[C@@H]3O)[C@@H](O)[C@H]2O)C=CC1` [NADH], for which the “DCIP reduction, absorbance at 600 nm” value in experiment [6] (setting [12]) is reported as “PdR preferred NADH to NADPH”.

On to `C/C1=C/C[C@@H](/C(C)=C/c2csc(C)n2)OC(=O)C[C@H](O)C(C)(C)C(=O)[C@H](C)[C@@H](O)[C@@H](C)CCC1` [epothilone D], for which, at EpoK (CYP167A1), the “conversion assay, reconstituted system” value is given as “EpoK catalyzes the epoxidation of C12-C13 double bond in epothilone D to form epothilone B”.

B1: putidaredoxin from Pseudomonas putida (natural protein)
chain: SKVVYVSHDGTRRELDVADGVSLMQAAVSNGIYDIVGDCGGSASCATCHVYVNEAFTDKVPAANEREIGMLECVTAELKPNSRLCCQIIMTPELDGIVVDVPDRQW
As for B1, the conversion rate of YC-17 by PikC (1 uM P450, 10 uM Fdx, 5 uM FdR), wild-type reference in [2] worked out at 15.6%; in experiment [3] it was 0%; in experiment [4], 0%. Besides, in [10], the Km for the redoxin in cyt c reduction (NAD(P)H, 1 nM FdR, 0-40 uM Fdx, 30 uM cyt c) amounted to 22.1 µM.

B2: Adx-M1 (domain or fragment)
chain: EDKITVHFINRDGETLTTKGKIGDALLDVVVQNNLDIDGFGACEGTLACSTCHLIFEQHIFEKLEAIADEEAAMLALAYGLTDRSRLGCQICLTKAMDNMTVRVP
B2 returned a conversion rate of YC-17 by PikC (1 uM P450, 10 uM Fdx, 5 uM FdR) in experiment [3] of 9.2%.

B3: Adx-M3 (domain or fragment)
chain: B2 chain with A25S, D38A, G39A, A42L, A68T, A72N, A73D, A76D
Take B3: in experiment [2], the conversion rate of YC-17 by PikC (1 uM P450, 10 uM Fdx, 5 uM FdR) amounted to 7.2%.

B4: Adx-M2 (domain or fragment)
chain: B2 chain with A25S, D38A, E44A, L47A, A68T, A72N, A73D
Regarding B4, the conversion rate of YC-17 by PikC (1 uM P450, 10 uM Fdx, 5 uM FdR) in [4] is 67.8%.
